Laboratory results reported in US12576050B2, “Dosage regime” (priority 2018, dated 2026).

Assay: In vitro mucolysis of patient sputum
Conditions: very thick/purulent sputum, patient already on Pulmozyme
Description: Patient had very thick/purulent sputum. The sputum from this patient was responsive to 5% cysteamine DPI formulation. Addition of DNAse I (Pulmozyme) at physiological concentration is having no effect, but this patient is already on Pulmozyme and recently had the dose tripled. The patient's sputum responded to in vitro tests with cysteamine (see FIG. 7). The sputum response was conducted in accordance with the general method outlined in EBioMedicine 2 (2015) 1507-1512 “Cysteamine as a Future Intervention in Cystic Fibrosis Against Current and Emerging Pathogens: A Patient-based ex vivo Study Confirming its Antimicrobial and Mucoactive Potential in Sputum”, Graham Devereux et al.

B1: DNAse I (Pulmozyme): DNAse I (Pulmozyme) added at physiological concentration to sputum (protein, UniProt P24855 23-282, looked up)
Deoxyribonuclease-1: LKIAAFNIQTFGETKMSNATLVSYIVQILSRYDIALVQEVRDSHLTAVGKLLDNLNQDAPDTYHYVVSEPLGRNSYKERYLFVYRPDQVSAVDSYYYDDGCEPCGNDTFNREPAIVRFFSRFTEVREFAIVPLHAAPGDAVAEIDALYDVYLDVQEKWGLEDVMLMGDFNAGCSYVRPSQWSSIRLWTSPTFQWLIPDSADTTATPTHCAYDRIVVAGMLLRGAVVPDSALPFNFQAAYGLSDQLAQAISDHYPVEVMLK
  Response of patient sputum (mucolysis): no effect
